Data from publication PMC9891822, “Cysteine Pathogenic Variants of PMM2 Are Sensitive to Environmental Stress with Loss of Structural Stability” (Oxidative Medicine and Cellular Longevity, 2023).
Residue numbers refer to the chain shown, from its start. Names and notes keep the numbering of the source.

B1: Phosphomannomutase2 (PMM2) wild type (enzyme, human, UniProt O15305-1 1-246, looked up)
chain: MAAPGPALCLFDVDGTLTAPRQKITKEMDDFLQKLRQKIKIGVVGGSDFEKVQEQLGNDVVEKYDYVFPENGLVAYKDGKLLCRQNIQSHLGEALIQDLINYCLSYIAKIKLPKKRGTFIEFRNGMLNVSPIGRSCSQEERIEFYELDKKENIRQKFVADLRKEFAGKGLTFSIGGQISFDVFPDGWDKRYCLRHVENDGYKTIYFFGDKTMPGGNDHEIFTDPRTMGYSVTAPEDTRRICELLFS
notes: PMM2, human, open reading frame NM_000303, primers from the start codon to the stop codon; Cloned into pET28a(+) 'containing 6x His-tag'; also called PMM2-WT; WT; source: E. coli BL21 (DE3), purified (Ni-NTA, Superdex 75)
B2: PMM2 Cys9Tyr (C9Y) variant (enzyme, human, UniProt O15305-1 1-246, looked up)
chain: B1 chain with C9Y
notes: PMM2, human, open reading frame NM_000303, with the pathogenic variant C9Y (c. G26A) found in patients; Cloned into pET28a(+) 'containing 6x His-tag'; also called PMM2-C9Y; source: E. coli BL21 (DE3), purified (Ni-NTA, Superdex 75)
B3: PMM2 Cys241Ser (C241S) variant (enzyme, human, UniProt O15305-1 1-246, looked up)
chain: B1 chain with C241S
notes: PMM2, human, open reading frame NM_000303, with the pathogenic variant C241S (c. G722C) found in patients; Cloned into pET28a(+) 'containing 6x His-tag'; also called PMM2-C241S; source: E. coli BL21 (DE3), purified (Ni-NTA, Superdex 75)

Target: the molecule itself
Assay: SEC; Superdex 75 10/300GL on an AKTA purifier; 100 uL of 0.2 mg/mL protein injected; 0.6 mL/min; 20 mM Na2HPO4, 150 mM NaCl, 1 mM EDTA; mass estimated from the elution volume

Stoichiometry N, 2:
B1, B2, B3
